How the values were obtained:
[1] = target: murine FcγRIII on cells (murine) (UniProt P08508); experiment: cell-based or functional assay
[2] = target: full-length murine NKG2D on cells (murine) (UniProt O54709); experiment: cell-based or functional assay
[3] = target: human NKG2D on CHO transfectant cells (human) (UniProt P26718); experiment: flow cytometry on human NKG2D-CHO transfectant cells
[4] = target: soluble form of murine NKG2D representing residues 88-232, N'-FLAG tagged (murine) (UniProt O54709); experiment: ELISA, mNKG2D immobilized on plate, goat anti-mouse F(ab')2-HRP detection
[5] = target: full-length murine NKG2D on cells (murine) (UniProt O54709); experiment: flow cytometry on stable mNKG2D transfectant HEK293 cells
[6] = target: full-length murine NKG2D on cells (murine) (UniProt O54709); experiment: flow cytometry on NK cells from mouse splenocytes, biotinylated antibody and streptavidin
[7] = target: full-length murine NKG2D on cells (murine) (UniProt O54709); experiment: flow cytometry on stable mNKG2D transfectant HEK293 cells, isotype control

Sequence of UniProt P26718 (P26718 whole entry, the tested form may be a part): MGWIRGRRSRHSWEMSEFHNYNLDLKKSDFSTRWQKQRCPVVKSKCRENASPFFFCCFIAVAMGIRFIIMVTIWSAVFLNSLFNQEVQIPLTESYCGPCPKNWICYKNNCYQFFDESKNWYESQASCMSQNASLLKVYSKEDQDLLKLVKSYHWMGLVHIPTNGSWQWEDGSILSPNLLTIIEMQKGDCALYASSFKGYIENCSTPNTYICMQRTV
Sequence of UniProt P08508 (P08508 31-261): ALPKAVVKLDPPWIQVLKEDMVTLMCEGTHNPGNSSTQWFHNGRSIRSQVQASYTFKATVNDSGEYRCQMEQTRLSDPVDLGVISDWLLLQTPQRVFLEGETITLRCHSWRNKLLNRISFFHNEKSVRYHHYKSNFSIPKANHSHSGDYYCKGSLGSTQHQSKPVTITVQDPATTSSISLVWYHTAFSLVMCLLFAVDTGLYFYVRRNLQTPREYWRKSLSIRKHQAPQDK

MFI [3] [MFI] | EC50 [4] [nM] | MFI [5] [MFI] | MFI [6] [MFI] | MFI [7] [MFI] | Substance | killing of BT474 cells by murine DX5+ NK cells (lactate dehydrogenase release), E:T ratio of 50:1, 6.7 nM antibody [1] [%] | killing of BT474 cells by murine DX5+ NK cells (lactate dehydrogenase release), E:T ratio of 50:1, 6.7 nM antibody [2] [%] | killing of BT474 cells by splenic NK cells of murine FcγRIII knockout mice, E:T ratio 20:1 [2] [%]
– | – | – | – | – | Anti-HER2 (4D5 mIgG2a) (antibody) | 15 | – | –
61.7 | 0.3 | 11 | – | – | Anti-HER2*-MicB fusion antibody (D265A + N297A) (from UniProt Q29980 16-297) | – | 15 | –
– | 0.2 | 100 | 48.9 | – | Anti-HER2-H60 fusion antibody | – | – | 10
61.7 | 0.3 | 11 | – | – | Anti-HER2-MicB fusion antibody (from UniProt Q29980 16-297) | – | – | 10
– | – | – | – | 4 | mouse IgG2a control antibody | – | – | –

— patent US20090226466A1
